Our source for the Kd values is article PMC7515635 (2020).

B1: GST-GABARAP (natural protein)
chain: MKFVYKEEHPFEKRRSEGEKIRKKYPDRVPVIVEKAPKARIGDLDKKKYLVPSDLTVGQFYFLIRKRIHLRAEDALFFFVNNVIPPTSATMGQLYQEHHEEDFFLYIAYSDESVYGL
B2: HIS6-AtC53 (natural protein)
chain: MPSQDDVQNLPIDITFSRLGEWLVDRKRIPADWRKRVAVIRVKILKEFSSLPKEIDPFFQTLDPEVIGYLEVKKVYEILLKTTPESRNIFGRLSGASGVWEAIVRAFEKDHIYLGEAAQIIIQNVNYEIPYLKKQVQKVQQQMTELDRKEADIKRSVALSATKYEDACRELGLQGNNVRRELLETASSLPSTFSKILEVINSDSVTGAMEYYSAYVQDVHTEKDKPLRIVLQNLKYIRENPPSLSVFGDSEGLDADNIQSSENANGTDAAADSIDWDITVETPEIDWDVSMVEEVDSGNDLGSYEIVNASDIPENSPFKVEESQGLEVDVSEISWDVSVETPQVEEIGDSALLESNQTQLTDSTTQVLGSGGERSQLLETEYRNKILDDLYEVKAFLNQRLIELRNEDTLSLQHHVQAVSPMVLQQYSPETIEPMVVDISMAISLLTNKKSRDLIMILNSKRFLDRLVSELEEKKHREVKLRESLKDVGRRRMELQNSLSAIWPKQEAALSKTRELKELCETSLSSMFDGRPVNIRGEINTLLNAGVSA
B3: GST-ATG8A (natural protein)
chain: MAKSSFKISNPLEARMSESSRIREKYPDRIPVIVEKAGQSDVPDIDKKKYLVPADLTVGQFVYVVRKRIKLGAEKAIFVFVKNTLPPTAALMSAIYEEHKDEDGFLYMTYSGENTFG

For experiment [1], the target named is AIM wt peptide. Put plainly: SPR. (Surface plasmon resonance follows binding to a sensor surface in real time, without labels.)
Experiment [2] deals with B3. Kind of experiment: SPR; derived from AIM wt peptide competition.

In general, Kd refers to the equilibrium constant for the complex coming apart. A higher Kd goes with lower affinity. As for B1, binding in experiment [1] was characterised by a dissociation constant (Kd) of 1.64 µM. With B2, in experiment [2], the Kd was around 1.39 µM. Take B3: the Kd in experiment [1] is 5.88 µM.
